Results taken from patent publication US20160319033A1 (INSERM INSTITUT NATIONAL DE LA SANTE ET DE LA RECHERCHE …, published 2016).

B1: murine anti-human-HER3 monoclonal antibody 9F7-F11 (antibody, V domains shown)
VH: EVKLVESGGGLVQPGGSLKLSCAASGFTFSSYTMSWVRQTPEKRLEWVAYISDGGGVTYYPDTIKGRFTISRDNAKNTLYLQMSSLKSEDTAMYYCARDRYGLFAYWGQGTLVTVSA
VL: DIVMTQSQKFMSTSVGDRVSITCKASQNVGIAVAWYQQKPGQSPKLLIYSASNRYTGVPDRFTGSGSGTDFTLTISNMQSEDLADYFCQQYSNYPYTFGGGTKLEIK
notes: Murine hybridoma antibody; also called mAb 9F7-F11; anti-HER3 Ab 9F7-F11
B2: neuregulin (NRG) (ligand, UniProt Q02297-6 177-241, looked up)
chain: SHLVKCAEKEKTFCVNGGECFMVKDLSNPSRYLCKCPNEFTGDRCQNYVMASFYKHLGIEFMEAE
modifications: also: d2 dye label as tracer, site not given here
notes: also called neuregulin 131 (as printed, probably neuregulin beta1); heregulin

Tests used:
[1] = molecular target: T1, HER3 Snap-tagged, on HEK cells (human, UniProt P21860 20-1342, Snap-tag labelled with Lumi4-terbium cryptate donor); test: Tag-Lite HTRF on HER3 Snap-tagged HEK cells; d2-labelled 9F7-F11 varied; without NRG
T1 construct: whole, on cells; also called HER3 Snap-tagged HEK cells; not shown: Snap-tag (CisBio Tag-Lite)
Procedure: (§1) After 16 h of incubation, the fluorescence of Lumi4-terbium and d2 was measured respectively at 620 and 665 nm (60 μs delay, 400 μs integration) upon 337 nm excitation on a Pherastar FS instrument.

[2] = molecular target: T1, HER3 Snap-tagged, on HEK cells; test: Tag-Lite HTRF on HER3 Snap-tagged HEK cells, d2-labelled mAb, without NRG
Procedure: as §1

[3] = molecular target: T1, HER3 Snap-tagged, on HEK cells; test: Tag-Lite HTRF on HER3 Snap-tagged HEK cells; d2-labelled 9F7-F11 varied; co-incubated with NRG (legend printed 'NRG 100 mM')
Procedure: as §1

[4] = molecular target: T2, human HER3 receptor on cells (human, UniProt P21860 20-1342); test: fluorescence of d2-labelled NRG on HER2/HER3-transfected 3T3 fibroblasts; 9F7-F11 varied; half-maximal enhancement of the binding of labelled NRG to HER3
T2 construct: whole, on cells; also called ErbB3
Procedure: (§2) After KREBS washing, fluorescence at 620/670 nm was measured using a Pherastar microplate reader.

[5] = molecular target: T1, HER3 Snap-tagged, on HEK cells; test: Tag-Lite HTRF on HER3 Snap-tagged HEK cells, d2-labelled mAb, co-incubated with NRG
Procedure: as §1

[6] = molecular target: T1, HER3 Snap-tagged, on HEK cells; test: Tag-Lite HTRF on HER3 Snap-tagged HEK cells, with NRG against without NRG
Procedure: as §1

[7] = molecular target: T2, human HER3 receptor on cells; test: fluorescence of d2-labelled NRG on HER2/HER3-transfected 3T3 fibroblasts; unlabelled NRG varied, displaced molecule: d2-labelled NRG
Procedure: as §2

[8] = molecular target: T2, human HER3 receptor on cells; test: flow cytometry competition on SKBR3 cells; NRG varied, displaced molecule: antibody B at a fixed concentration
Procedure: Cells were then washed and further incubated with a 1:60 dilution of appropriate FITC-conjugated secondary antibody (Sigma) for 45 min on ice, before cytometry analysis on a Quanta apparatus (Beckman-Coulter).

Binder | EC50 (read off the curve) [1] [nM] | Kd [2] [nM] | EC50 (read off the curve) [3] [nM] | EC50 (read off the curve) [4] [nM] | Kd [5] [nM] | fold increase of affinity with NRG against without NRG [6] [fold] | IC50 (read off the curve) [7] [nM] | IC50 (read off the curve) [8] [nM]
B1 | ~2 | 2.33 | ~0.5 | ~10 | 0.47 | 6 |  | 
B2 |  |  |  |  |  |  | ~5 | ~2
